Laboratory results taken from patent US20210340217A1, “NOVEL PEPTIDES AND COMBINATION OF PEPTIDES FOR USE IN IMMUNOTHERAPY AGAINST OVARIAN CANCER AND OTHER CANCERS” (Immatics Biotechnologies GmbH, priority 2017, published 2021).

Tests used:
HLA-A*24:02 = HLA-A*24:02 (Homo sapiens, UniProt P04439, D101N/D140Y/D185E/E176V/E190D/F33S/G103R/G107R/I119L/I121M/I306V/K335N/L105A/L180Q/L300P/N151K/N90K/Q86E/Q94H/R106L/R138H/R89G/T104I/T345S/V100E/W191G/Y123F); test: MHC binding assay (UV-ligand exchange, beta2m ELISA); conditions: peptide exchange yield
Outline: (§1)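 Peptide–MHC complexes formed by UV-induced exchange of a UV-cleavable peptide for the test peptide. Exchange yield measured by streptavidin-capture ELISA detecting β2m (HRP anti-β2m, TMB, A450) on 100-fold diluted samples. Quantified against refolded HLA-A*02:01/MLA-001 standards (15-500 ng/ml).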

HLA-A*01:01 = HLA-A*01:01 (Homo sapiens, UniProt P04439, A114D/A174V/A182V/D101N/D185E/E176A/E190D/L180R/Q94H/R68K/S129P/T187R/V100A/V91M/W191G); test: as above; conditions: peptide exchange yield
Outline: as §1

HLA-A*02:01 = HLA-A*02:01 (Homo sapiens, UniProt P04439, D140Y/D185E/D98H/E176V/E277Q/G131W/G231S/I119V/I121R/I166T/I218V/L300P/L318F/N151K/N90K/P208A/P217A/Q86G/Q94H/R138H/R169H/T345S); test: as above; conditions: peptide exchange yield
Outline: as §1

CD8+ T cells = test: In vitro immunogenicity for MHC class I presented peptides (in vitro priming of CD8+ T cells with aAPCs, pMHC multimer readout); assay type: cell-based, human
Description: In order to obtain information regarding the immunogenicity of the TUMAPs of the present invention, the inventors performed investigations using an in vitro T-cell priming assay based on repeated stimulations of CD8+ T cells with artificial antigen presenting cells (aAPCs) loaded with peptide/MHC complexes and anti-CD28 antibody. […]
Generation of pMHC/anti-CD28 coated beads, T-cell stimulations and readout was performed in a highly defined in vitro system using four different pMHC molecules per stimulation condition and 8 different pMHC molecules per readout condition. […]
800.000 beads/200 μl were coated in 96-well plates in the presence of 4×12.5 ng different biotin-pMHC, washed and 600 ng biotin anti-CD28 were added subsequently in a volume of 200 μl. […] For the pMHC multimer readout using 8 different pMHC molecules per condition, a two-dimensional combinatorial coding approach was used as previously described (Andersen et al., 2012) with minor modifications encompassing coupling to 5 different fluorochromes. […] Peptide specific cells were calculated as percentage of total CD8+ cells. […] In vitro priming of specific multimer+ CD8+ lymphocytes was detected by comparing to negative control stimulations.

Row | Peptide exchange (HLA-A*24:02) | Substance | also measured
1 | ++++ (>75% = ++++) | 246 (RYLAVVHAVF; listed as Homo sapiens) [compound 246] | –
2 | ++++ (>75% = ++++) | 249 (VYTPTLGTL; listed as Homo sapiens) [compound 249] | –
3 | +++ (>50 = +++) | 252 (LYQPRASEM; listed as Homo sapiens) [compound 252] | –
4 | +++ (>50 = +++) | 255 (VFVSFSSLF; listed as Homo sapiens) [compound 255] | –

Further lines, the substance ahead of its results:

Row | Substance | Peptide exchange (HLA-A*24:02) | also measured
5 | 10 (RYSDSVGRVSF; listed as Homo sapiens) [compound 10] | ++++ (>75% = ++++) | –
6 | 11 (SYSDLHYGF; listed as Homo sapiens) [compound 11] | ++++ (>75% = ++++) | –
7 | 12 (KYEKIFEML; listed as Homo sapiens) [compound 12] | ++++ (>75% = ++++) | –
8 | 13 (VYTFLSSTL; listed as Homo sapiens) [compound 13] | ++++ (>75% = ++++) | –
9 | 14 (FYFPTPTVL; listed as Homo sapiens) [compound 14] | ++++ (>75% = ++++) | –
10 | 15 (VYHDDKQPTF; listed as Homo sapiens) [compound 15] | ++++ (>75% = ++++) | –
11 | 16 (IYSPQFSRL; listed as Homo sapiens) [compound 16] | ++++ (>75% = ++++) | –
12 | 17 (RFTTMLSTF; listed as Homo sapiens) [compound 17] | ++++ (>75% = ++++) | –
13 | 18 (KYPVHIYRL; listed as Homo sapiens) [compound 18] | ++++ (>75% = ++++) | –
14 | 19 (KYVKVFHQF; listed as Homo sapiens) [compound 19] | ++++ (>75% = ++++) | –
15 | 31 (LLDEGAMLLY; listed as Homo sapiens) [compound 31] | – | Peptide exchange (HLA-A*01:01): ++++ (>75% = ++++)
16 | 76 (KYVAELSLL; listed as Homo sapiens) [compound 76] | ++++ (>75% = ++++) | –
17 | 77 (RYGPVFTV; listed as Homo sapiens) [compound 77] | ++++ (>75% = ++++) | –
18 | 78 (SFAPRSAVF; listed as Homo sapiens) [compound 78] | ++++ (>75% = ++++) | –
19 | 79 (SYNEHWNYL; listed as Homo sapiens) [compound 79] | ++++ (>75% = ++++) | –
20 | 80 (TAYMVSVAAF; listed as Homo sapiens) [compound 80] | +++ (>50 = +++) | –
21 | 81 (VYNHTTRPL; listed as Homo sapiens) [compound 81] | ++++ (>75% = ++++) | –

Row | Substance | Peptide exchange (HLA-A*24:02) | also measured
22 | 82 (SYFRGFTLI; listed as Homo sapiens) [compound 82] | ++++ (>75% = ++++) | –
23 | 112 (TVTGAEQIQY; listed as Homo sapiens) [compound 112] | – | Peptide exchange (HLA-A*01:01): ++ (>20% = ++)
24 | 113 (QLDSNRLTY; listed as Homo sapiens) [compound 113] | – | Peptide exchange (HLA-A*01:01): +++ (>50 = +++)
25 | 114 (VMEQSAGIMY; listed as Homo sapiens) [compound 114] | – | Peptide exchange (HLA-A*01:01): ++ (>20% = ++)
26 | 115 (FVDNQYWRY; listed as Homo sapiens) [compound 115] | – | Peptide exchange (HLA-A*01:01): +++ (>50 = +++)
27 | 116 (VLLDEGAMLLY; listed as Homo sapiens) [compound 116] | – | Peptide exchange (HLA-A*01:01): ++ (>20% = ++)
28 | 242 (STIPALHEI; listed as Homo sapiens) [compound 242] | – | Peptide exchange (HLA-A*02:01): +++ (>50 = +++)
29 | 243 (YASEGVKQV; listed as Homo sapiens) [compound 243] | – | Peptide exchange (HLA-A*02:01): +++ (>50 = +++)
30 | 244 (DTDSSVHVQV; listed as Homo sapiens) [compound 244] | – | Peptide exchange (HLA-A*02:01): + (>10% = +)
31 | 288 (SPVTSVHGGTY; listed as Homo sapiens) [compound 288] | – | Peptide exchange (HLA-A*01:01): ++ (>20% = ++)
32 | 289 (RWEKTDLTY; listed as Homo sapiens) [compound 289] | – | Peptide exchange (HLA-A*01:01): ++ (>20% = ++)
33 | 290 (DMDEEIEAEY; listed as Homo sapiens) [compound 290] | – | Peptide exchange (HLA-A*01:01): ++ (>20% = ++)
34 | 291 (ETIRSVGYY; listed as Homo sapiens) [compound 291] | – | Peptide exchange (HLA-A*01:01): +++ (>50 = +++)
35 | 292 (NVTMKVVSVLY; listed as Homo sapiens) [compound 292] | – | Peptide exchange (HLA-A*01:01): +++ (>50 = +++)
36 | 773 (ALYGKLLKL; listed as Homo sapiens) [compound 773] | – | Wells positive [%] (CD8+ T cells): +++ (50%-69% = +++)
37 | 774 (VYVDDIYVI; listed as Homo sapiens) [compound 774] | – | Wells positive [%] (CD8+ T cells): +++ (50%-69% = +++)
